# Assays:
# [1] = molecular target: T1, human IL-23R, cell-expressed (human, UniProt Q5VWK5 24-629); assay: cell-based or functional assay
# T1 sequence (looked up): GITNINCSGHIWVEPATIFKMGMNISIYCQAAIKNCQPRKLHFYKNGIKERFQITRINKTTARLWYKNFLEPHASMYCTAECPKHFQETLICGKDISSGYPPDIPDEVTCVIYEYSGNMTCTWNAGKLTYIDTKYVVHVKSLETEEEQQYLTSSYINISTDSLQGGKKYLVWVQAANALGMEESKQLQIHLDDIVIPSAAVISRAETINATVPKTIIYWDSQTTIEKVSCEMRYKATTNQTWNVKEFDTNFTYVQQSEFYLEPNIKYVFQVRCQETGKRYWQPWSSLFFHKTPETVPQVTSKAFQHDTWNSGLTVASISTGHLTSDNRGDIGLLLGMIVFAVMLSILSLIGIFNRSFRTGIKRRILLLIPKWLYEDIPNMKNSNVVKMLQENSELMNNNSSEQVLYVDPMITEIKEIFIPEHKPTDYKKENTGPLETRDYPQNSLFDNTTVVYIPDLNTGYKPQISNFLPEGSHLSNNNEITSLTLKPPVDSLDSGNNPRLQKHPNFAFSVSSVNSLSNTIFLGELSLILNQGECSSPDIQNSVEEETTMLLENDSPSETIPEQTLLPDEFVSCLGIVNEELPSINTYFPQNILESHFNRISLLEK
# [2] = molecular target: T1, human IL-23R, cell-expressed; assay: FACS, Th17-differentiated T cells
# [3] = molecular target: T2, human IL-23R extracellular domain Fc-fusion (human, UniProt Q5VWK5 24-355); assay: SPR Biacore T100, captured IL-23R-Fc
# T2 construct: extracellular domain; bought; also called IL-23R-Fc
# T2 sequence (looked up): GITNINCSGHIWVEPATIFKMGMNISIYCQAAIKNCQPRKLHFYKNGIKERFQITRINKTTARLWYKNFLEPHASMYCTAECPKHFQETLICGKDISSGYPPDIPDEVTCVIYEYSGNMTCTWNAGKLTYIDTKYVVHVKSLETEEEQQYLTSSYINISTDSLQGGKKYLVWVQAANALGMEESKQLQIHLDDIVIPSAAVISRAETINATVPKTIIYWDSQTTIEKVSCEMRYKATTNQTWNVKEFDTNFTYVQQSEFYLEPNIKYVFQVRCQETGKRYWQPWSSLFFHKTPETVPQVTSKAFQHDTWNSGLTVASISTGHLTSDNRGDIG
# [4] = molecular target: T2, human IL-23R extracellular domain …; assay: competition ELISA, coated IL-23 + 5 nM IL-23R-Fc
# [5] = molecular target: T2, human IL-23R extracellular domain …; assay: competition ELISA, coated IL-23 + IL-23R-Fc; IL-23 competition ELISA of Table 3.3
# [6] = molecular target: T3, human IL12Rβ1, cell-expressed (human, UniProt P42701 24-662); assay: flow cytometry on isolated CD8+ T cells of donor D863, anti-Flag detection
# T3 construct: whole, on cells; in the context of the heterodimeric receptor; also called IL12Rb1
# [7] = molecular target: T4, human CD4, cell-expressed (human, UniProt P01730 26-458); assay: flow cytometry on MOLM-13 cells (CD4, no IL12R or IL23R), upper right panel
# T4 construct: whole, on cells
# [8] = molecular target: T3, human IL12Rβ1, cell-expressed; assay: cell-based or functional assay
# [9] = molecular target: T3, human IL12Rβ1, cell-expressed; assay: cell-based or functional assay; remark: listed apart in the source
# [10] = molecular target: T3, human IL12Rβ1, cell-expressed; assay: FACS, activated human T cells
# [11] = molecular target: T5, human IL12Rβ1 extracellular domain Fc-fusion (human, UniProt P42701 24-545); assay: SPR Biacore T100, captured IL12Rβ1-Fc
# T5 construct: extracellular domain; bought; also called IL12Rβ1-Fc; hIL-12Rβ1-Fc; not shown: Fc part, captured by anti-hIgG
# [12] = molecular target: T5, human IL12Rβ1 extracellular domain …; assay: competition ELISA, coated IL-12 + IL12Rβ1-Fc
# [13] = molecular target: T5, human IL12Rβ1 extracellular domain …; assay: competition ELISA, coated IL-23 + IL12Rβ1-Fc
# [14] = molecular target: T5, human IL12Rβ1 extracellular domain …; assay: competition ELISA, coated IL-12 + 2 nM IL12Rβ1-Fc
# [15] = molecular target: T5, human IL12Rβ1 extracellular domain …; assay: competition ELISA, coated IL-23 + 2 nM IL12Rβ1-Fc
# [16] = molecular target: T4, human CD4, cell-expressed; assay: flow cytometry on MOLM-13 cells (CD4, no IL12R or IL23R), lower left panel
# [17] = molecular target: T6, human CXCR4 (on cells, viral lipoparticles or membrane extracts) (human, UniProt P61073 1-352); assay: FACS, Jurkat cells
# T6 construct: whole, on cells; also called hCXCR4 VLPs; CXCR4-lip
# T6 sequence (P61073 whole entry): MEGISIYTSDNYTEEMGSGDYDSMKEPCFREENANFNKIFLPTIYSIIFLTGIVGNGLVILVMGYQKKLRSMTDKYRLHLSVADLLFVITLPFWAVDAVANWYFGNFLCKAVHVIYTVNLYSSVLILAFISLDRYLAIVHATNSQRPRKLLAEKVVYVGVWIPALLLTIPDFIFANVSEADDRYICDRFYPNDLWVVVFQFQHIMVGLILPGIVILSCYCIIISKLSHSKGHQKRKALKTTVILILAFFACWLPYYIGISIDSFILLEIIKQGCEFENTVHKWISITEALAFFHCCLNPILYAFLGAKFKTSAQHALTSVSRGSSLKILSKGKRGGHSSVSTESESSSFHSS
# [18] = molecular target: T6, human CXCR4 (on cells, viral …); assay: FACS, MOLM-13 cells
# [19] = molecular target: T6, human CXCR4 (on cells, viral …); assay: cell-based or functional assay
# [20] = molecular target: T6, human CXCR4 (on cells, viral …); assay: cell-based or functional assay; remark: listed apart in the source
# [21] = molecular target: T6, human CXCR4 (on cells, viral …); assay: cell-based or functional assay; remark: listed apart in the source
# [22] = molecular target: T6, human CXCR4 (on cells, viral …); assay: cell-based or functional assay; remark: listed apart in the source
# [23] = molecular target: T6, human CXCR4 (on cells, viral …); assay: cell-based or functional assay; remark: listed apart in the source
# [24] = molecular target: T6, human CXCR4 (on cells, viral …); assay: cell-based or functional assay; remark: listed apart in the source
# [25] = molecular target: T6, human CXCR4 (on cells, viral …); assay: FACS, Jurkat E6-1 cells
# [26] = molecular target: T6, human CXCR4 (on cells, viral …); assay: [125I]-SDF-1 displacement, Hek-CXCR4 membrane extracts
# [27] = molecular target: T6, human CXCR4 (on cells, viral …); assay: flow cytometry on THP-1 cells (CXCR4 and IL-3Ra)
# [28] = molecular target: T7, recombinant IL-3Rα ectodomain (human, UniProt P26951 19-305); assay: ELISA on recombinant IL-3Ra ectodomain (both lower panels)
# T7 construct: extracellular domain; also called recombinant IL-3Ra; biotinylated-IL-3Rα ectodomain
# T7 sequence (looked up): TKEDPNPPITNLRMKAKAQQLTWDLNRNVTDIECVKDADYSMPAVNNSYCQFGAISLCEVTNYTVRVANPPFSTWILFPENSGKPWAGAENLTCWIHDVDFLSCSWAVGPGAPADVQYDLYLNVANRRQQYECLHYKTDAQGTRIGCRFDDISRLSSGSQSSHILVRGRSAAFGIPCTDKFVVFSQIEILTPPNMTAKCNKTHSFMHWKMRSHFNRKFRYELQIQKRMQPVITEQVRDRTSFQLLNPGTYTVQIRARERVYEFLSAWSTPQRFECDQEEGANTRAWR
# [29] = molecular target: T6, human CXCR4 (on cells, viral …); assay: flow cytometry on MOLM-13 cells (IL-3Ra higher than CXCR4)
# [30] = molecular target: T6, human CXCR4 (on cells, viral …); assay: flow cytometry on U-937 cells (CXCR4, virtually no IL-3Ra)
# [31] = molecular target: T6, human CXCR4 (on cells, viral …); assay: flow cytometry on THP-1 cells (CD4 and CXCR4), detection via tag
binder,measurement,setting,value
"IL23R#19: 150D02 (VHH, also called LG150D02) VHH: EVQLVESGGGLVQPGGSLTLSCVASGRTFSTDVMGWFRQAPGKEREFVAAHRTSGISTVYAASVKGRFTISRDNAKNTVYLGMKSLKPEDTAVYVCAAGSDASGGYDYWGQGTLVTVSS","IC50, IL-23 dependent IL-17 release, PBMC D840",[1],100 nM
same,EC50,[2],20 nM
same,Kd,[3],11 nM
same,koff,[3],0.0081 s⁻¹
same,kon,[3],730000 M⁻¹ s⁻¹
same,IC50,[4],4.7 nM
same,IC50,[5],1.7 nM
same,binding result,[6],no binding (tested: 250 nM)
same,binding result,[7],no binding (tested: 1E-6 M)
"IL12Rb1#30: 148C09 (VHH, also called IL12Rβ1#30; LG148C09) VHH: EVQLVESGGGLVQTGGSLRLSCAASGRTPRLVAMGWFRQTPGKEREFVGEIILSKGFTYYADSVKGRFTISRVNAKNTITMYLQMNSLKSEDTAVYYCAGRQNWSGSPARTNEYEYWGQGTLVTVSS","IC50, IL-12 induced IFNγ release, PBMC D840",[8],17 nM
same,"IC50, IL-12 induced IFNγ release, T cells D839",[8],140 nM
same,"IC50, IL-17 release, PBMC D840",[9],35.5 nM
same,EC50,[10],1.3 nM
same,Kd,[11],3.3 nM
same,koff,[11],0.0015 s⁻¹
same,kon,[11],450000 M⁻¹ s⁻¹
same,IC50,[12],3.7 nM
same,IC50,[13],1.5 nM
same,IC50,[14],3.7 nM
same,IC50,[15],1.5 nM
same,binding result,[16],no binding (tested: 1E-6 M)
"281F12 (VHH, also called CXCR4#2; 4CXCR281F12-FLAG3-HIS6) VHH: EVQLVESGGGLVQAGDSLRLSCAASGRAFSRYAMGWFRQAPGKEREFVAAIGWGPSKTNYADSVKGRFTISRDNAKNTVYLQMNTLKPEDTAVYSCAAKFVNTDSTWSRSEMYTYWGQGTLVTVSS",EC50,[17],7.8 nM
same,EC50,[18],5.2 nM
same,"IC50, SDF-1 chemotaxis, Jurkat E6-1",[19],84.2 nM
same,"IC50, SDF-1 chemotaxis, MOLM-13",[19],86 nM
same,"IC50, HIV-1 BaL (R5), PBMC",[20],> 1670 nM
same,"IC50, HIV-1 NL4.3 (X4), MT-4",[20],67.1 nM
same,"IC50, HIV-1 NL4.3 (X4), PBMC",[20],29.3 nM
same,"IC50, HIV-1 NL4.3 (X4), U87",[20],> 6670 nM
same,"IC50, HIV-1 NL4.3 wt, MT-4",[21],22.7 nM
same,"IC50, NL4.3 2G12 res., MT-4",[21],17.3 nM
same,"IC50, NL4.3 AMD-3100 res., MT-4",[21],> 1670 nM
same,"IC50, NL4.3 CD4#8 res., MT-4",[21],87.3 nM
same,"IC50, NL4.3 CXCL-12res., MT-4",[21],220 nM
same,"IC50, NL4.3 CXCR4#2 res, MT-4",[21],2330 nM
same,"IC50, HIV-1 HE, MT-4",[22],10 nM
same,"IC50, HIV-1 NL4.3, MT-4",[22],22.7 nM
same,"IC50, HIV-2 ROD, MT-4",[22],86.7 nM
same,"IC50, SDF-1 chemotaxis, Jurkat",[23],68 nM
same,"IC50, CXCL-12 chemotaxis, Jurkat E6-1",[24],96.8 nM
same,"IC50, CXCL-12 chemotaxis, MOLM-13",[24],86 nM
same,EC50,[25],7 nM
same,Ki,[26],26.9 nM
same,EC50 (read off the curve),[27],~20 nM
same,binding result,[28],no binding (tested: 1E-6 M)
same,EC50 (read off the curve),[29],~20 nM
same,EC50 (read off the curve),[30],~10 nM
same,EC50 (read off the curve),[31],~6 nM
